In patent US10398755:

Target: T1, mouse CLU with C-terminal (His)6 (CLU-His), recombinant secreted clusterin, Q06890
T1 chain: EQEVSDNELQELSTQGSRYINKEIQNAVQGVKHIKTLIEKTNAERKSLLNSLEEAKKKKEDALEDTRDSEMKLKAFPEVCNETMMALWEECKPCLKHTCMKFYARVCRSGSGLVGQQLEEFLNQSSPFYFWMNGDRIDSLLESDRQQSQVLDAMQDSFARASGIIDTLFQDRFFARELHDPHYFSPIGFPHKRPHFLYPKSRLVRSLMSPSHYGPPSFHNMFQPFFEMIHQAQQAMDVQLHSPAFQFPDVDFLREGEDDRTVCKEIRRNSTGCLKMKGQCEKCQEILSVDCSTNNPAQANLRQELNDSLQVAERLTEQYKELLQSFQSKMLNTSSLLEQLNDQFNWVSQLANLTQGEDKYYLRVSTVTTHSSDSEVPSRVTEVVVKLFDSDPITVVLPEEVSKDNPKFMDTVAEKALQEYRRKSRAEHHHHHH

B1: MMP-9, propeptide-cleaved (APMA-processed active MMP-9) (protein)
chain: FQTFKGLKWDHHNITYWIQNYSEDLPRDMIDDAFARAFAVWGEVAPLTFTRVYGPEADIVIQFGVAEHGDGYPFDGKDGLLAHAFPPGAGVQGDAHFDDDELWSLGKGVVIPTYYGNSNGAPCHFPFTFEGRSYSACTTDGRNDGTPWCSTTADYDKDGKFGFCPSERLYTEHGNGEGKPCVFPFIFEGRSYSACTTKGRSDGYRWCATTANYDQDKLYGFCPTRVDATVVGGNSAGELCVFPFVFLGKQYSSCTSDGRRDGRLWCATTSNFDTDKKWGFCPDQGYSLFLVAAHEFGHALGLDHSSVPEALMYPLYSYLEGFPLNKDDIDGIQYLYGRGSKPDPRPPATTTTEPQPTAPPTMCPTIPPTAYPTVGPTVGPTGAPSPGPTSSPSPGPTGAPSPGPTAPPTAGSSEASTESLSPADNPCNVDVFDAIAEIQGALHFFKDGWYWKFLNHRGSPLQGPFLTARTWPALPATLDSAFEDPQTKRVFFFSGRQMWVYTGKTVLGPRSLDKLGLGPEVTHVSGLLPRRLGKALLFSKGRVWRFDLKSQKVDPQSVIRVDKEFSGVPWNSHDIFQYQDKAYFCHGKFFWRVSFQNEVNKVDHEVNQVDDVGYVTYDLLQCP
- digestion of CLU by active MMP-9 (SDS/PAGE, Coomasie staining; gelatin as known substrate): the density of CLU protein, separated as a and 6 subunits, changed little, whereas most high molecular weight gelatin disappeared upon incubation with MMP-9, indicating that CLU is not a substrate for MMP-9 in vitro
